From the nanobody polyreactivity screen of Harvey et al. (2022)

Test: yeast display, Sf9 membrane polyspecificity reagent, FACS + sequencing; frameworks hold sequencing errors
Procedure, shortened: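 Nanobodies from a synthetic yeast display library (Saccharomyces cerevisiae BJ5465), induced 36–48 hours with galactose, were stained 1 hour at 4 °C with 10% biotinylated, detergent-solubilized Sf9 membrane reagent, enriched on streptavidin microbeads, then FACS-sorted. Anti-HA (expression) and streptavidin (reagent binding) fluorescence set low and high (top ~1%) gates. Polyreactivity labels come from the gate of origin. Genes were colony-PCR amplified, MiSeq 2 × 250 sequenced and filtered by CDR length.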

For “QDQLGESGGGLVQAGGSLRLSCAASGSTFYAYAMGWYRQAPGKERELVATISWSGGSTYADCVKGRFTISRDNAKNTVYLQMNSLKPEDTPVYYCNAAGAFYPTQVHPGYTLWSYDYWGQGTQVTVSS”, which “polyreactivity (PSR sort gate)” value is on record?
The value was “low polyreactivity”.

For “QDQLLESVGGLVQAGGSLRLSCAATGSTFHRSVMGSYRQAPGKEREMVAVINSTGGSTYYADSVKGRFTISLDNAKNTVYLQMNSVKPEDSAVYYFAADLYSIEYETAYRGYEYWGQGTQVTVSS”, which “polyreactivity (PSR sort gate)” value is on record?
Its value is “low polyreactivity”.

With “QDQLVDSGGGLVQAGGSLRLLCAPSGRTFGVYAMGRYIQAPGKERELVAAISRDGGSTYYADSVKGRFTISRDNAKNTVYLQMNSLIPEDTAVYYCNTDWRYRYGYWGQGTQVTVSS” as the sequence, how does the “polyreactivity (PSR sort gate)” value read?
The value was “high polyreactivity”.

Which “polyreactivity (PSR sort gate)” value does the source give for “QDQLVDSGGGLVQAGGSLRLSCAASGFTFSLNTMGWYRQAPGKERELVAAINSGDSTYADSVKGRFTISRDNAKNTVYLQMNSLKPEETAVYYCNADPDWWYPYNYWGQGTQVTVSS” here?
Its value is “low polyreactivity”.

For “QDQLVDSGGGLVQAGGSLRLSCAASGRIFGYNSMGWYRQAPGKERELVASISSDGRTYYADSVKGRFTISRDNAKNTVYLQMNSLKPEDTAVYYCAAKEWYFTTWYTYYERDYWGQGTQVTLSS”, which “polyreactivity (PSR sort gate)” value is on record?
The value was “high polyreactivity”.

With “QDQLVDSGGGLVQAGGSLRLSCAASGRIFSGNGMGWYSPAPGKERELVASISSGGRTYYADSVKGRFTISRDNAKITVYLQMNSLKPEDTAVYYCNRVASVRARDYDYWGQGTQVTVSS” as the sequence, how does the “polyreactivity (PSR sort gate)” value read?
The value was “high polyreactivity”.

For “QDQLVDSGGGLVQAGGSLRLSCAASGRIIGYNAMVWYRQGPGKERELVAAITTSGGSTYYADSVKGRFTISSDNAKNTVYLQMNSLKPVDTAVYYCARDSLQVFYPYASDDYWGQGTQVTVSS”, which “polyreactivity (PSR sort gate)” value is on record?
The value was “low polyreactivity”.

For “QDQLVDSGGGLVQAGGSLRLSCAASGRTFGYYAMGWYRQAPGKERELVAAISISTGRTYYADSVKGRFTISRDNAKNTVYLQMNSLKPEDTAVYYCAAYYYGGRYHSEYDYWGQGTQVTVSS”, which “polyreactivity (PSR sort gate)” value is on record?
The value was “high polyreactivity”.

For “QDQLVDSGGGLVQAGGSLRLSCAASGRTIISYAMGRYRPAPGKERELVATITRDGRTNYADSVKGRFTISRDNAKNTVYLQMNSLNPEDTAVYYCNADSRYRYDYWGQGSQVTVSS”, which “polyreactivity (PSR sort gate)” value is on record?
The value was “low polyreactivity”.

Which “polyreactivity (PSR sort gate)” value does the source give for “QDQLVDSGGGLVQAGGSLRLSCAASGSNFCGKAMGWYRQAPGKEREFVAAITRSGGSTYYADSVKGRFTISRDNAKNTVYLQMNSLKPEDTAVYYCNRDYAFKHHRAGYGYWGQGTLVTVSS” here?
The value was “low polyreactivity”.

For “QDQLVDSGGGLVQAGGSLRLSCAASGSTFGPYPMGWYRQAPGKERELVATISSGGSTYYADSVKGRFTISRDNAKNTVYLQMNSLKPEDTSVYDCAARYWSIYDYWGQGTQVTVSS”, which “polyreactivity (PSR sort gate)” value is on record?
Its value is “low polyreactivity”.

Which “polyreactivity (PSR sort gate)” value does the source give for “QDQLVDSGGGLVQAGGSLRLSCAASGYIFDRYAMGWYRQEPGKERELVAAISGRGGSTYYADSVKGRFTISRDNAKNTVYLQMYSLKREDTAVYYCARDVYVRNGQRARFDSWGQGTQVTVSS” here?
Its value is “high polyreactivity”.

With “QDQLVDSGGGLVQAGGSLSLSCAASGISFYGNAMAWYRPAPGKERELVAAITSGGSTNYADSVKGRFTISRDNAKNTVYLQLYSLKPEDTAVYYCAVSYVSTLRRSRYDYWGQGTQVTVSS” as the sequence, how does the “polyreactivity (PSR sort gate)” value read?
Its value is “low polyreactivity”.

Which “polyreactivity (PSR sort gate)” value does the source give for “QDQLVDSGGVLVQAGGSLRLTCAASGSTFARNAMGWYRQAPGKERELVAAISSGGTTNYADSVKARFTISRDNAKNTVYLQMNSLKPEDTAVYYCNAGFRNVLTSGYLYDYWGQGTQVTVSS” here?
Its value is “low polyreactivity”.

With “QDQLVEERGGLVQAGGSLRLSCAASGITFSTNAMGWYRQAPGKERELVAAITSVTSTYYADSVKGRFTISRDYAKNSVYLQMNSLKTEDTAVLYCAASLSRWPYFYEYNYWGQGTQVTVSS” as the sequence, how does the “polyreactivity (PSR sort gate)” value read?
The value was “low polyreactivity”.

Which “polyreactivity (PSR sort gate)” value does the source give for “QDQLVESAGGLVQAGGSLRLSCAASARIFRYNAIGCYRQGPGKERVLVASITSAGSTNYADSVKGRFTISRDNAKNTVYLQMNSLKPEDTAVYYCNKRRAYGYYLFDYWGLGTQVTVSS” here?
Its value is “high polyreactivity”.

Which “polyreactivity (PSR sort gate)” value does the source give for “QDQLVESAGGLVQAGGSLRLSCAASASTFIVYAMGWYRQAPGKEREFVATINHSGDSTYYADSVKGRFTISRDNAKNTVYLQMNSLKPEDTAVYYCNATVVFVQYVDYDYWGQGTLVTVSS” here?
The value was “low polyreactivity”.

For “QDQLVESAGGLVQAGGSLRLSCAASGRIFKSYAMGWYRQAPGKERELVASTSYTGGSTYYADSVKGRFTISRDNAKNTVYIQRNSLKPDETAVYYCAPKRVRSAGSYGYWGQGTQVTVSS”, which “polyreactivity (PSR sort gate)” value is on record?
Its value is “low polyreactivity”.

With “QDQLVESAGGLVQAGGSLRLSCAASGRTFVTNTMGWSRQAPGKERELVAAISSRGGTTYYADSVKGRFTISRDNAKNTVYLQMNSLKPEDTAVYYCNTGTRAIQRDGFEYWGQGTQVTVSS” as the sequence, how does the “polyreactivity (PSR sort gate)” value read?
The value was “low polyreactivity”.

For “QDQLVESAGGLVQAGGSLRLSCAATGLNLVPNTMGLYRQAPGKETQLVAAISYSGGGTYYADSVKGRFTISRDNAKNTVYLQMNSLKPEDTAVYYCAAYVKREYAPYGYWGQGTQVTVSS”, which “polyreactivity (PSR sort gate)” value is on record?
Its value is “low polyreactivity”.

With “QDQLVESGAGLVQAGGSLRLSCAASGSTFGIYAMGWSRQAPGKEREFVAAISRSGSSTYYADSVKGRFTISRDNAKNTVYLQMNSLKPEDTAVYYCAAVVRYSQAGYYYWGQGTHVTVSS” as the sequence, how does the “polyreactivity (PSR sort gate)” value read?
Its value is “high polyreactivity”.

Which “polyreactivity (PSR sort gate)” value does the source give for “QDQLVESGGALVQPGGSLRLSCAASGRLLGRYAMGWYRQAPGKDRELVATITSGDDTNYADSVKGRFTISRDNAKNTVYLQMNSLKPEDTAVGYWGQGTQVTVSS” here?
Its value is “low polyreactivity”.

For “QDQLVESGGCLVQAGGSLRLRCAASGRTFEAYAKGGYRQAPGKERELVASISSGGSTYYADSVNGRFTISRDNAKNTVYLQMNSLKPEDTAVYYCAAKRATRYYFAYYRARSERMNYWGQGTQVTVSS”, which “polyreactivity (PSR sort gate)” value is on record?
Its value is “high polyreactivity”.

For “QDQLVESGGCLVQAGGSLRLSCAASGSIFKTYAMGWYRQAPGKERELVAAISWRGGSTYYADSVKGRFTISRDNAKNTVYLQMISLKPEDTAVYYCAAGRKFGTRTLWYRYGYWGQGTQVTVSS”, which “polyreactivity (PSR sort gate)” value is on record?
The value was “high polyreactivity”.

With “QDQLVESGGGFVQAGGSLRLSCAASGFIFVTYAMGWFRQAPGKERELVAAITWSTTSTYYADSVKGRFTISRDNAKNTVYLQMNSLKPDETAVYSCAKYYFQYKHDYWGQGTQVTVSS” as the sequence, how does the “polyreactivity (PSR sort gate)” value read?
The value was “low polyreactivity”.

With “QDQLVESGGGFVQAGGSLRLSCEASGSIFNYYAMGCSRQAPGKERELVAAITTSGGNTYYADSVKGRFTISRDNAKNTVYLQMNSLKPEDTAVYYCAADYWASGGEYDYWGQGTQVTVSS” as the sequence, how does the “polyreactivity (PSR sort gate)” value read?
Its value is “low polyreactivity”.

Which “polyreactivity (PSR sort gate)” value does the source give for “QDQLVESGGGFVQAGGSRRLSCAASGRTLAYNAMGWYRPAPGKEWEFVAAITYSGGSTYYADSVKGRFTISRDNAKNTVYLQMYSLKPEDTAVYYCNAKRKRGYGSKFDYWGQGTQVTVSS” here?
The value was “high polyreactivity”.

For “QDQLVESGGGIVQAGGSLRLSCAASGRTFGINAMGWSRQAPGKERELVAVISCGDGGTYYADSVKWRFTISRDNAKNTVYLQMKSLKPEDTAVYYCSSEYQSTSLWGGHFVINPYDYWGQATQVTVSS”, which “polyreactivity (PSR sort gate)” value is on record?
The value was “low polyreactivity”.

Which “polyreactivity (PSR sort gate)” value does the source give for “QDQLVESGGGLDHAGGSIRLSCAASGFISKYYAMGWYTQAPGKERELVASISRDGSTSYADTVKGRFTNTRDNAKNPVYLQMNSLKPEDTAVYYCNAGYNWYPLFDYWGQGTQVTVSS” here?
Its value is “high polyreactivity”.

For “QDQLVESGGGLDQAGGRLRLSCAASGSIFGVYAMGWYRQAPGKERELVASITWSSGSTNYADSVKGRFTISRDNAKNTVYLQMNSLKPEDTAVYYCNRVYARSQRVVTKFHYDYWGQGTQVTVSS”, which “polyreactivity (PSR sort gate)” value is on record?
Its value is “low polyreactivity”.

Which “polyreactivity (PSR sort gate)” value does the source give for “QDQLVESGGGLDQAGGSLRLSCAASGFTFYNYAMGWYRQAPGKERELVAAISWNGGSTYYADSVKGRFTISRDNAKNTVYLQMNSLKPEDTAVYYCNADISQRTRGYYYVWWSRMDYWGQGTQVTVSS” here?
The value was “low polyreactivity”.

With “QDQLVESGGGLDQAGGSLRLSCAASGRTFLWNAMGWYRQAPGKERELVARINLSGGRTYYADSVKGRFTISRDNAKNTVYLQMNSLKPDDTAVYYCAATVVRYRRDSWGQGTQVTVSS” as the sequence, how does the “polyreactivity (PSR sort gate)” value read?
The value was “low polyreactivity”.

With “QDQLVESGGGLDQAGGSLRLSCAATGGIIRQNVMGWYRQPPGKERELVAAISRRGVITYYADSVKGRFTISRDNAKNTVYLQMNSLKPDDTAVYYCNYKPTWDYSYWGQGTQLTVSS” as the sequence, how does the “polyreactivity (PSR sort gate)” value read?
The value was “high polyreactivity”.

For “QDQLVESGGGLDQARGSLRLSCAACGSTFPRYAMGWSRQAPGKERELVAAITASGGSTYYADSVKGRFTISRDNAKNPVYLQMNSLKPEDTAVYYCATPSLYTGYDYWGQGTQVTVSS”, which “polyreactivity (PSR sort gate)” value is on record?
Its value is “low polyreactivity”.

With “QDQLVESGGGLFQAGGSLRLICAASGFIFSSYDMGWDRQAPGKERELVAAITTVGSRIYADSVKGRFTISRDNAKNTVDLQMNCLKPEDSAVYVCATVPGGSWLVLWWSTGGDDEYWGHGTQVTVSS” as the sequence, how does the “polyreactivity (PSR sort gate)” value read?
Its value is “low polyreactivity”.

With “QDQLVESGGGLFQAGGSLRLSCAASGFTFVDYTMGWYRQEPGKEREFVAAISSSGGSTYYADSVKGRITISRDYAKNTVYFQMNSLKPEDTAVYYCKADAINKRGGRDYWGQGTQVTVSS” as the sequence, how does the “polyreactivity (PSR sort gate)” value read?
The value was “high polyreactivity”.

Which “polyreactivity (PSR sort gate)” value does the source give for “QDQLVESGGGLFQAGGSLRLSCSASGSIFQYYTMGWYRQAPGKERELVAAIKSGGRTNYADSVKGRFTISRDNAKNTVYLQMNSLKPEDTAVYYCAKRLSTRASFGEEDSWGQGTQVTVSS” here?
Its value is “low polyreactivity”.

For “QDQLVESGGGLLQAGGSLRLSCAASGLTFSDYAMGWYRQAPGKEREFVAAITRNGGSTRYADSVKGRFTISRDNAKNTVYVQMNSVKPEDTAVFYCHKVSFVYSRSKGFYYTYLKFEYWGQGTQVTVSS”, which “polyreactivity (PSR sort gate)” value is on record?
Its value is “low polyreactivity”.

With “QDQLVESGGGLLQAGGSLRLSCAASGSTIGYYAMGWYRQAPGKERELVAAINSGDSTSYADSVKGRFTISRDNAKNTVYLQMNSLKPEDTAVYYCAVRPRRHQYGYWGQGTQVTVSS” as the sequence, how does the “polyreactivity (PSR sort gate)” value read?
The value was “low polyreactivity”.

For “QDQLVESGGGLVHAGGSLRLSCAASVSTFTRYDMGRYRQAPGKERELVDAISWSGGRTHYADSVKGRFTISRENAKNTVYLQMNSLKPEDTAVYYCNTLYDYWYDYWGQGSQVTVSS”, which “polyreactivity (PSR sort gate)” value is on record?
The value was “low polyreactivity”.

With “QDQLVESGGGLVQAGASLRLSCAASGITFNVYAMGWYRQAPGKEREFVAAISYNGGRTYYADSVKGRFTISRDNAKNTVYLQMNSLKPEDTAVYYCAAQWAWGPYDYWGQGTQVTVSS” as the sequence, how does the “polyreactivity (PSR sort gate)” value read?
The value was “high polyreactivity”.
